# Experiment: soluble on expression in E. coli; label from the status in PepcDB or PDB records
row,Sequence,soluble on expression in E. coli
1,SGNTSSERTGMGQEKANRRDSRGTKEGDRPKILMDSPEDADIFHGEDLKAPLEKEEFIEWRPDLEGSEKTDTLDRPTVFRWTGAGKEVYISGSFNNWTNKIPLIRSQNNFVAIVDLPEGEHQYKFYVDGLWTHDPTEPVVTNQLGTVNNIIQVKKTDFEVFDALMVDSQKCSDMSDLSSSPPGPYHQDAYTPKQEEKFKSPPILPPHLLQVILNKDTGISCDPALLPEPNHVMLNHLYALSIKDGVMVLSATHRYKKKYVTTLLYKPI,not soluble
2,MIGIVAAFEKVKIPEMGKSFGTGWLPPLPSLKDYTEESAQIPEMAEKLGIPTSRKETKTLELPVSIDFRNWCSPIEDQMDLGSCTAHAGVGVVEYFERRAFGKHIDGSRFFVYKTTRNLMGVKGDTGAWLRNTMGALALCGVPPEKYFPYTSRKTPGPDGEPTFDDEPSSFVYSLADNFEALNYFCHDPQGMNLPPEDVILSVKKYLAAGIPSMFGFYGFPSFKDTDVKGGIPFPGPDERSIWGHAVVAVGYDDNMKIRNTLSNKETTGAFLIRNSWGTAWGDKGYGWLPYEYALNKFALDFWSLISMKWVETGNFGLELESSRSRARETLSRDMPLPHALEHHHHHH,soluble
3,AVSKVYARSVYDSRGNPTVEVELTTEKGVFRSIVPSGASTGVHEALEMRDGDKSKWMGKGVLHAVKNVNDVIAPAFVKADIDVKDQKAVDDFLISLDGTANKSKLGANAILGVSLAASRAAAAEKDVPLYKHLADLSKSKTSPYVLPVPFLNVLNGGSHAGGALALQEFMIAPTGAKTFAEALRIGSEVYHNLKSLTKKRYGASAGNVGDEGGVAPNIQTAEEALDLIVDAIKAAGHDGKVKIGLDCASSEFFKDGKYDLDFKNPNSDKSKWLTGPQLADLYHSLMKRYPIVSIEDPFAEDDWEAWSHFFKTAGIQIVADDLTVTNPKRIATAIEKKAADALLLKVNQIGTLSESIKAAQDSFAAGWGVMVSHRSGETEDTFIADLVVGLRTGQIKTGAPARSERLAKLNQLLRIEEELGDNAVFAGENFHHGDKL,soluble
4,MLKVDGIDVFYGNIHALKGVSLEVNKGEIVTLIGANGAGKTTLLKTISGLLRPKNGDIVYEGASIAGKAAQTIVKQGISHVPEGRRVFANMTVEENLELGAFLRKDKEGIQQDFAKVFQLFPRLEERRKQLAGTLSGGEQQMLAIGRALMARPKLLLLDEPSMGLAPLLVKTIFRIIQEINESGTTILLVEQNAHMALSIAHRAYVLESGRVVLSGTASELQASEQVKQAYLGGH,soluble
5,TLFDGIARAVCRAGCLPRKELYEAWEVARRVRRRFRGGRVVDLACGHGLLAWIMLLLDDSSPGALAVDRRLPPSAAGLAAVLETEWPRLRGRVRLLEADLAEVELGRDDLVVSAHACGGLTDLVLARAVAAGARVAVLPCCHDLAGADLAGLQGWLDGPLAMDVLRATGLRERGYRVFTQQ,not soluble
6,MSLTLDELDSHLFKCADIIRDAVDPTDYKEYILPLVFYKAISDEYEQEREEIVEEYGEDFADNANLYDVPIVPEGHRWNDLRQESENVDEAINNAFTEFTQANPDLSGIFNANFMEAGGLTDDRLIKLVEHLSTYDLDRDSVPPDMLGEAYMDLVRHFAEEEGKSGGQFFTPPHIVQLCVRLVDDFADGMTFHDPTVGSGGMLTEAAKYYREAQGGDPSKLTFTGQEINPDIAAIARMNLSLHTLNGEIERGDSLASPGFTDGDDLERFDRVLANFPFSADWAKDDLQDDQYGRFDWHTKLPRADRGDYAFIMHIAEQLKEPDCGDESGGKAAIVIPHGVLFRKHEQRYRQPMLENDLVEAIVGLPENLFQNNSIPSAILVLNTDKPADREGEVQFIHAADEAFYEELSNQNELTDDGLDHIVENFDDWTTEERVSRTVGIEEIEENDFNLNIALYVDTTEPEEDIDVNEELAELRELQAEREEIESRMTEHMEALQYE,soluble
7,MTDKWLDTINWSADGLIPAIAQDKNNGKILMVAWMNREALKRTVESGEAVYWSRSRKKLWHKGEESGHTQKISAIHLDCDEDILLLSVEQKGGIACHTGRQSCFFRQLKNGEWVVTEPVIKDPSQIYTK,not soluble
